The assay deals with T1, recombinant human TCTP (translationally controlled tumor protein) (human, UniProt P13693 1-172).
T1 construct: The ELISA is only said to be 'on TCTP', and the screening beads were coated with human TCTP; also called HRF; Tpt1
T1 sequence: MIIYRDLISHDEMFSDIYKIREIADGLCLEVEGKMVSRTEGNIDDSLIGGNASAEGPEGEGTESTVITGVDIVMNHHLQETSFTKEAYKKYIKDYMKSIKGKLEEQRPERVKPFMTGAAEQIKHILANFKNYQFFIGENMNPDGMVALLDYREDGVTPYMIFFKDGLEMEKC
In words: ELISA on TCTP, after single B cell screening with human TCTP coated beads. As to the method:
Transgenic mice for preparing fully human antibodies (CAMOUSE®) were immunized by using a recombinant human TCTP (SEQ ID NO: 36), and standard single B cell screening method was used. Single viable B cell arrays were prepared by applying splenocyte of immunized mice to microarray chips. TCTP-specific antibody secreting single cells were screened on the microarray chip using human TCTP coated beads and then recovered by micromanipulation, mRNA were recovered from the single cells, and cDNA sequences encoding the variable regions of the IgG heavy (VH) and light (VL) chains were amplified by RT-PCR. The recombinant antibodies containing the VH and VL sequences are purified and tested by ELISA on TCTP. As a result, antibody 1-2-4 was obtained. The variable region sequences of antibody 1-2-4 are as follows. The antibody sequences for 1-2-4 were obtained from CAMOUSE® in cooperation with CAMAB (China) and GenScript (China).

This is an account of results in patent publication US20240000932A1 (BOOSTIMMUNE, published 2024).

B1: anti-TCTP human monoclonal antibody 1-2-4 (antibody, V domains shown)
VH: QVQLVQSGAEVKKPGASVKVSCKASGYTFFSYAMHWVRQAPGQRLEWMGWINAGNGNTKYSQKFQDRVTITRDTSATTAYMELSSLRSEDTAVYYCASWVFDYWGQGTPVTVSS
VL: DIVMTQTPLSSLVTLGQPASISCRSSQSLVHRDGNTYLSWLQQRPGQPPRLLIYKISNRFFGVPDRFSGSGAGTDFTLKISRVEAEDVGVYYCMQATQFPHTFGQGTKLEIK
As for B1, the binding result was “binds”.
